Laboratory results taken from PMC4089490, “Structures of the NLRP14 pyrin domain reveal a conformational switch mechanism regulating its molecular interactions” (Acta Crystallographica Section D: Biological Crystallography, 2014).
Numbering of substitutions follows the chain as printed. Names may count otherwise.

B1: NLRP14 PYD (wild-type NLRP14 pyrin domain, residues Met1-Gln100) (domain or fragment, human, UniProt Q86W24 1-100, looked up)
chain: MADSSSSSFFPDFGLLLYLEELNKEELNTFKLFLKETMEPEHGLTPWNEVKKARREDLANLMKKYYPGEKAWSVSLKIFGKMNLKDLCERAKEEINWSAQ
notes: NLRP14 pyrin domain, human, residues Met1-Gln100, amplified from human NLRP14 cDNA GenBank NM_176822.3; The crystal structure (PDB 4n1j) was solved from selenomethionine-labelled protein expressed in SeMet minimal medium and purified identically; SEC used the native protein; also called wild-type NLRP14 PYD; wild-type PYD; source: E. coli BL21 Star (DE3), purified (Ni-NTA, eluted by thrombin …)
B2: NLRP14 PYD D86V (protein)
chain: B1 chain with D86V

Columns and labels:
[1] = molecular target: the molecule itself; assay: SEC; analytical Superdex 75 10/300, 20 mM Tris pH 8.0, 150 mM NaCl, 5 mM TCEP; 700 µl at 1 mg/ml injected; monomer:dimer ratio from peak areas
Q86W24 = assay: as above

Protein | stoichiometry N [1] | dimer fraction (SEC peak area) (Q86W24)
B1 | 2 | dimeric (17%)
B2 | – | 12.13 ml, 24%
